Experiment: soluble on expression in E. coli; label from the status in PepcDB or PDB records

For “MITMKHVILVGDGMADYPLDELDGKTPLQVADKPNMDQLAGMGACGLLRTVPEGMEAGSDVANLSIMGYDPRRYYTGRGPLEAASIGVELGDDDVAFRCNLINADERIVDFNAGHIETAEASSLIDALNHELETRGRFYAGVSYRNLFVIEGRGYTSVRVEPPHDIVGESVAAHLPSGSEEADHIRELMLESAGVLRSHEVNLKRESMGKRPATMIWLWGQGLRPSMEPFSERYGIRGATITAVDLIKGLGVYAGLENIHVPGATGYLDTDYRAKGRYAAGALEEYDFLYVHVEAPDEAGHAGDAEEKIRAIENIDRFVLGRLLDALSDHEHRIAVLPDHPTPIEIRTHVPDPVPCILAGDGVDADQVKSYDEFTVREGSLGTWEAHRLMEIMMDPAARLRQLEHHHHHH”, which “soluble on expression in E. coli” value is on record?
The value was “not soluble”.

For “MGSDKIHHHHHHMDLYFVKFRVTSKLTSEIVQGYFLGKLNQIPEYDFFVIPGRYARKYSVDLNLGFEDFLEDFKAKKESALKEVLEASAITDEFFDFWLIQSRKQNLRLVGSEFFRLVESGDHEALRVFIADLFREWSEKLEVEVVGVPLDYEDVSLEVVKEHFEELSTDEVFKLFQREDLRNLPEVFPVLDPLNGVTIREIDVEERIDFVILNYGNEEFSEKFKRFLKEKFGTENVASLPGKVLSKEIVKTREGTLYLLKVEFEEGIIGKAIVSPNLKIKRGESRVKISDEEWMEKIGEMLKEGEESKQEKLKLRNSPQPVQKTTSSD”, which “soluble on expression in E. coli” value is on record?
The value was “not soluble”.

With “SNAENNQTTTTHSKVISHVFCTGTAKLGSVGPPIGLVDIGVSEVAYIFRVSLPGIEKNQDKIKCEIQREGRVCIQGVIPEIAIPSDTGCLYRMQVQQLCPPGPFSITFNLPGQVDPRLFSPNFRSDGIFEVVVVKLGVRIPTS” as the sequence, how does the “soluble on expression in E. coli” value read?
Its value is “soluble”.

Which “soluble on expression in E. coli” value does the source give for “YFKEKKIHPEAEMFDNRGFGVVAMMGLPLAGKDTYIKENFKNINVISLDDIREELNISSKRNSGKVAAIAISRAKQLLRRKESFIWNATNLRRENRQKLIRLCTAYGAKLKFIYLEVPYRELLSRNKMRSRYVPVEVINKMIRKMDMLEGEEIC” here?
Its value is “not soluble”.

With “FSNNNFVYTDGTHFALNGKSLYINGFNAYWLMYIAYDPSTRIKVTNTFQQASKYKMNVARTWAFSHGGSRPLQSAPGVYNEQMFQGLDFVISEAKKYGIHLIMSLVNNWDAFGGKKQYVEWAVQRGQKLTSDDDFFTNPMVKGFYKNNVKVVLTRVNTITKVAYKDDPTILSWELINEPRCPSDLSGKTFQNWVLEMAGYLKSIDSNHLLEIGLEGFYGNDMRQYNPNSYIFGTNFISNNQVQGIDFTTIHMYPNQWLPGLTQEAQDKWASQWIQVHIDDSKMLKKPLLIAEFGKSTKTPGYTVAKRDNYFEKIYGTIFNCAKSGGPCGGGLFWQVLGQGMSSFDDGYQVVLQESPSTSRVILLQSLRLSKLS” as the sequence, how does the “soluble on expression in E. coli” value read?
Its value is “soluble”.

For “MHPFYTRAATMIGEIAAAVSFISKFLRTKGLTSERQLQTFSQSLQELLAEHYKHHWFPEKPCKGSGYRCIRINHKMDPLIGQAAQRIGLSSQELFRLLPSELTLWVDPYEVSYRIGEDGSICVLYEASPAGGSTQNSTNVQMVDSRISCKEELLLGRTSPSKNYNMMTVSG”, which “soluble on expression in E. coli” value is on record?
Its value is “soluble”.

With “EFIHGVYVDTSLHRNFVNLQQASLMAEGGVTGGISLLRNLRTSGNDQGLQQLLADPVQFEDEKGRVSITIEEEDGKLNLNAVTLPNGDEHVFYGPAERRLLTALKLPTALHDSLADWLDANDEPRPDGGESAYYQSLSAPYAPRNAPFATFGELGLVRGVEPAVLERLRPFATVFVDGGAINVNTAPLQVLMALDEGISEGIARDIMQRRRIKPFKSVGELSEIPGMETIAGKLSGFAGARGSTYRLVSRAAVGDVTRLVEAVVNLDGTQPRYLY” as the sequence, how does the “soluble on expression in E. coli” value read?
The value was “not soluble”.

— the DeepSol protein solubility set
